Test results as given in paper PMC4992835, “Antibodies elicited by the first non-viral prophylactic cancer vaccine show tumor-specificity and immunotherapeutic potential” (Scientific Reports, 2016).
Substitutions are numbered along the chain they refer to. Values belong to the binder of their own block, whether it stands above or below them.

How the values were obtained:
[1] = biological target: T1, MUC1 100mer vaccine peptide (Homo sapiens, UniProt P15941); experiment: SPR; Biacore T200; Fab captured at low density (RU < 50) on a CM5 chip coated with anti-human Fab capture kit; serially diluted 100mer peptide as analyte; 'Steady State' in Table 1 in place of rate constants; conditions: both partners purified
T1 construct: 5 copies of the unglycosylated 20mer tandem repeat of the MUC1 VNTR region, human; 100 aa, 5 tandem repeats of 20 aa; unglycosylated; also called 100mer MUC1 peptide; MUC1 VNTR 100mer

[2] = biological target: T1, MUC1 100mer vaccine peptide
Target sequence in this assay (P15941 136-235): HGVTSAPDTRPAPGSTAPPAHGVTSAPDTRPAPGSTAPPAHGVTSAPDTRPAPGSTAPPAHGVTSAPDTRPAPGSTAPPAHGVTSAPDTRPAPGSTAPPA

MUC1 VNTR 25mer peptide = biological target: T2, MUC1 VNTR 25mer peptide (Homo sapiens); experiment: SPR; Biacore T200; whole IgG captured on a CM5 chip coated with anti-human IgG capture antibody; serially diluted 25mer peptide as analyte; 1:1 model; conditions: both partners purified
T2 construct: MUC1 VNTR, human; one repeat plus 5 amino acids from the next repeat; also called 25mer MUC1 peptide
T2 sequence (peptide, as listed by the source): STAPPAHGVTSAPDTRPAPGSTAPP

[3] = biological target: T1, MUC1 100mer vaccine peptide; experiment: SPR; Biacore T200; Fab captured at low density (RU < 50) on a CM5 chip coated with anti-human Fab capture kit; serially diluted 100mer peptide as analyte; kinetic analysis, 1:1 model; conditions: both partners purified

B1: H4K10 Fab (Fab, V domains shown)
VH: QLQLQESGPGLVKPSETLSLTCTVSGGSISSSRYYWGWIRQPPGKGLEWIGSIYYSGSTYYNPSLKSRVTISVDTSNNQFSLKLTSVTAADTAVYYCARLPESGGYSGWFDPWGQGTLVTVSS
VL: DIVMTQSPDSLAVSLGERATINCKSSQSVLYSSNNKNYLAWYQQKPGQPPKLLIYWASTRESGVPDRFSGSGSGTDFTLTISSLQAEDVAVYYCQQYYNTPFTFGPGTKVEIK
Kd [1]: 5310 nM

B2: H4K11 Fab (Fab, V domains shown)
VH: B1 VH
VL: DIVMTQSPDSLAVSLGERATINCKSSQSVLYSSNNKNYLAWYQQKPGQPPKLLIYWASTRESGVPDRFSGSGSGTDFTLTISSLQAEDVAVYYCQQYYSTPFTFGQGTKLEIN
Kd [1]: 15700 nM

B6: H14K6 Fab (Fab, V domains shown)
VH: QVQLVESGGGLVKPGGSLRLSCAASGFTFSDYYMSWIRQAPGKGLEWVSYISSSGSTIYYADSVKGRFTISRDNAKNSLYLQMNSLRAEDTAVYYCARERIGYCSGGSCYYYYYMDVWGKGTTVTVSS
VL: not shown
Kd [3]: 0.13 nM
koff [3]: 0.000346 s⁻¹
kon [3]: 2.67e+06 M⁻¹ s⁻¹

Other lines, results leading:

binding result [2]: binds
B3: H16K6 (antibody, V domains shown)
VH: B6 VH with S56T, I58K, A97V, R100N, I101L, Y110F
VL: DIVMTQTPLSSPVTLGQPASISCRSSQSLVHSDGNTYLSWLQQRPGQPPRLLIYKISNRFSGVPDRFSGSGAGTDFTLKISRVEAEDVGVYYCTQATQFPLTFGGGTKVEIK

kon (MUC1 VNTR 25mer peptide): 8600 M⁻¹ s⁻¹
B4: H19K15 whole IgG (antibody, V domains shown)
VH: B6 VH with T28I, S56T, I58K, A97V, R100D, Y110F
VL: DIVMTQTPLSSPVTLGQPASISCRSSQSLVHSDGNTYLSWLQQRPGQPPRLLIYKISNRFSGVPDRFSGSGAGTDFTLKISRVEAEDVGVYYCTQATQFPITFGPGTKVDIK

Kd [3]: 0.555 nM
koff [3]: 0.000453 s⁻¹
kon [3]: 817000 M⁻¹ s⁻¹
B5: H19K15 Fab (Fab, V domains shown)
VH: B6 VH with T28I, S56T, I58K, A97V, R100D, Y110F
VL: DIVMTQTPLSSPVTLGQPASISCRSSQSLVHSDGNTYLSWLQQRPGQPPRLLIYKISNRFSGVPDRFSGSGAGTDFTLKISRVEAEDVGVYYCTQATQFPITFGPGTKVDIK

Kd (MUC1 VNTR 25mer peptide): 27.2 nM
koff (MUC1 VNTR 25mer peptide): 0.00123 s⁻¹
kon (MUC1 VNTR 25mer peptide): 45300 M⁻¹ s⁻¹
B7: H14K6 whole IgG (antibody, V domains shown)
VH: B6 VH
VL: not shown
